Here are results for 1 molecule from article PMC4797294.

A word on the Kd: it is the constant that tells how readily two partners part at equilibrium. A high value points to a looser complex.

In this data set the target is T1, pVIc-TMR (UniProt P03274 240-250).
T1 chain: GVQSLKRRRCF
The experiment in a line: fluorescence polarization. Background: In fluorescence polarisation assays a small probe gives low polarisation when free and higher when bound to something large.

B1: 30 bp dsDNA (dsDNA)
DNA 1: GACGACTAGGACGACGACGAGGATGACGAC
DNA 2: GTCGTCATCCTCGTCGTCGTCCTAGTCGTC
In turn, B1 yielded a Kd of 262 ± 88 nM.
